One data set concerns the target GST-HDAC1 (mouse, UniProt O09106 1-482). The data set can be described thus: pull-down.
The data set “SEC” deals with the molecule itself. In words: SEC. (SEC sorts molecules by how far they enter the pores of the column.)

What is called stoichiometry N is the number of molecules, sites or subunits per partner or assembly.

Chain of GST-HDAC1 (O09106 whole entry): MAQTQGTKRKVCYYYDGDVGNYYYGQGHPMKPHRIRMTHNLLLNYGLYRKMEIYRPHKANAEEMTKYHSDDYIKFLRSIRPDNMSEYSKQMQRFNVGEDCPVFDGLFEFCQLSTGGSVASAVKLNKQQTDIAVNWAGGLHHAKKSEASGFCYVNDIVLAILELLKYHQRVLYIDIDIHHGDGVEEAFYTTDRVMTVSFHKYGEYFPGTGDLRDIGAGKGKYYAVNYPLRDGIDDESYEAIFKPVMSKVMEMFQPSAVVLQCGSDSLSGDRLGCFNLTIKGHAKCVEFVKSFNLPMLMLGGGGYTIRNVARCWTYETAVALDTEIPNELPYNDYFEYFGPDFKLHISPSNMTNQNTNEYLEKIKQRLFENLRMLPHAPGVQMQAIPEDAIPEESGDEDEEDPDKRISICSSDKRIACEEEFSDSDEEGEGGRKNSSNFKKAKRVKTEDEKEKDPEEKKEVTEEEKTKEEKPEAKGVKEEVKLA

B1: His6-KIAA1841(BTB) (domain or fragment, mouse, UniProt Q68FF0-1 144-261, looked up)
chain: GPNMVIHVCDEAKSLKEDFICPRDLLISEMKYFAEYLSMDAQRWEEVDISVHCDVHIFNWLIKYVKRNTKESKDCEIPALEPGNVISILISSEFLKMDSLVEQCIQYCHKNMNAIVAA
In the case of B1, the binding result in the data set with GST-HDAC1 was “binds”. Besides, the “stoichiometry N” value in “SEC” is 2.

The values are drawn from doi:10.1101/2020.08.12.247809 (bioRxiv, 2020).
